Assay [1] addresses GST-ACK GBD wild type, ACK(448-489) (UniProt Q07912). As to the kind of experiment: BLI; Octet Red; GST fusion proteins (10 μg/ml) loaded on anti-GST sensors, dipped into a dilution range of Cdc42·GMPPNP; 50 mM Tris–HCl pH 7.5, 150 mM NaCl, 1 mM MgCl2, 0.02% Tween 20, 0.1% BSA, 0.05% sodium azide, 25 °C; GST-alone sensors subtracted. On the technique in general: In BLI a coated tip is dipped into the sample, and binding shifts an interference pattern.

Assay [2] concerns the target GST-WASP (Wiskott–Aldrich syndrome protein) fusion construct. The assay is described as above.
The target of assay [3] is GST-WASP ΔBR (basic region mutant of WASP). Described as above.
Another assay concerns the target GST-ACK GBD A451D (UniProt Q07912). Description: scintillation proximity assay (direct binding); 20 nM GST-ACK variant immobilised on protein A SPA fluoromicrospheres via an anti-GST antibody; varying concentrations of [3H]GTP-Cdc42; background without effector subtracted; apparent Kd from a direct binding isotherm. (In a scintillation proximity assay essentially only radioactivity close to the scintillant gives light.)

For a further assay, the target named is GST-ACK GBD D469A (UniProt Q07912). Described as above.
The target of the next assay is GST-ACK GBD D480A (UniProt Q07912). Described as above.
A further assay concerns the target GST-ACK GBD F462A (UniProt Q07912). The description is as above.
The target of the next assay is GST-ACK GBD G468A (UniProt Q07912). The assay is described as above.
Another assay concerns the target GST-ACK GBD H464A (UniProt Q07912). The description is as above.
The target in the next assay is GST-ACK GBD H464A/H467A (UniProt Q07912). The assay is described as above.
The next assay concerns the target GST-ACK GBD H467A (UniProt Q07912). The description is as above.
The target in the next assay is GST-ACK GBD I463A (UniProt Q07912). The description is as above.
A further assay deals with GST-ACK GBD L449A (UniProt Q07912). Described as above.
In a further assay the target is GST-ACK GBD L485A (UniProt Q07912). The description is as above.
For another assay, the target named is GST-ACK GBD L487A (UniProt Q07912). Described as above.
In another assay the target is GST-ACK GBD P457A (UniProt Q07912). The assay is described as above.
A further assay addresses GST-ACK GBD Q452A (UniProt Q07912). The description is as above.
Another assay concerns the target GST-ACK GBD Q459A (UniProt Q07912). The description is as above.
Another assay concerns the target GST-ACK GBD R481A (UniProt Q07912). The description is as above.
Another assay has as its target GST-ACK GBD S450A (UniProt Q07912). The assay is described as above.
The target of the next assay is GST-ACK GBD S455A (UniProt Q07912). The description is as above.
The next assay addresses GST-ACK GBD S461A (UniProt Q07912). The assay is described as above.
The next assay has as its target GST-ACK GBD S470A (UniProt Q07912). Described as above.
Another assay has as its target GST-ACK GBD T465A (UniProt Q07912). The description is as above.
In another assay the target is GST-ACK GBD W476A (UniProt Q07912). The description is as above.
Assay [4] deals with GST-ACK GBD wild type, ACK(448-489) (UniProt Q07912). Described as above.
The target of the next assay is GST-ACK GBD Δ17 (UniProt Q07912). Described as above.
The target of another assay is Cdc42 Δ7 Q61L (UniProt P60953). Description: scintillation proximity assay (competition); 30 nM GST-WT ACK GBD immobilised on protein A SPA fluoromicrospheres via an anti-GST antibody, 30 nM [3H]GTP-Cdc42; increasing concentrations of GST-cleaved ACK variant; pure competition model, apparent Kd (Ki).

“Cdc42 Δ7 Q61L (from UniProt P60953 1-191) (natural protein)”: the Kd was 130 nM in assay [1]; 30 nM in assay [2]; 220 nM in [3]; 189 nM with GST-ACK GBD A451D; 38 nM with GST-ACK GBD D469A; 164 nM in the assay with GST-ACK GBD D480A. Besides, the Kd with GST-ACK GBD G468A is 67.3 nM; with GST-ACK GBD I463A it was 152 nM; with GST-ACK GBD L449A, 492 nM; with GST-ACK GBD L485A it was 31.4 nM; in the assay with GST-ACK GBD L487A, 330 nM; with GST-ACK GBD Q452A, 44 nM. For the same molecule, the Kd was found to be 29.8 nM in the assay with GST-ACK GBD Q459A; 107 nM with GST-ACK GBD R481A; 167 nM with GST-ACK GBD S450A; 243 nM with GST-ACK GBD S455A; 35.4 nM in the assay with GST-ACK GBD S470A; 85.4 nM in the assay with GST-ACK GBD T465A. The Kd in the assay with GST-ACK GBD W476A amounted to 137 nM; in [4], 44.2 nM. In addition, the on-rate constant (kon) was determined as 224000 M⁻¹ s⁻¹ in assay [1], 793000 M⁻¹ s⁻¹ in [2] and 360000 M⁻¹ s⁻¹ in [3]. Moreover, the fold increase in Kd over WT with GST-ACK GBD F462A, in the assay with GST-ACK GBD H464A, in the assay with GST-ACK GBD H464A/H467A, with GST-ACK GBD H467A, in the assay with GST-ACK GBD P457A and in the assay with GST-ACK GBD S461A was > 22.6 -fold throughout. The fold increase in Kd over WT with GST-ACK GBD Δ17 is > 22.6 -fold.
GLSAQDISQPLQNSFIHTGHGDSDPRHCWGFPDRIDELYLGN (domain or fragment) [ACK GBD wild type, ACK(448-489), cleaved from GST]: the Kd with Cdc42 Δ7 Q61L is 20 nM.
As to GLSAQDISQPLQNSFIATGHGDSDPRHCWGFPDRIDELYLGN (domain or fragment) [ACK GBD H464A, cleaved from GST], in the assay with Cdc42 Δ7 Q61L, the Kd amounted to 2510 nM.
Same read-out and setting: next, GLSAQDASQPLQNSFIHTGHGDSDPRHCWGFPDRIDELYLGN (domain or fragment) [ACK GBD I454A, cleaved from GST]: 19700 nM.
Same read-out and setting: next, GLSAQDIAQPLQNSFIHTGHGDSDPRHCWGFPDRIDELYLGN (domain or fragment) [ACK GBD S455A, cleaved from GST]: 750 nM; GLSAQDISQPLQNAFIHTGHGDSDPRHCWGFPDRIDELYLGN (domain or fragment) [ACK GBD S461A, cleaved from GST]: 4160 nM.
Regarding GLSAQDISQALQNSFIHTGHGDSDPRHCWGFPDRIDELYLGN (domain or fragment) [ACK GBD P457A, cleaved from GST], the Kd with Cdc42 Δ7 Q61L worked out at 3830 nM.
The same measure, in the same setting: next, GLSAQDISQPLQNSFIHTGAGDSDPRHCWGFPDRIDELYLGN (domain or fragment) [ACK GBD H467A, cleaved from GST]: 1790 nM; GLSAQDISQPLQNSAIHTGHGDSDPRHCWGFPDRIDELYLGN (domain or fragment) [ACK GBD F462A, cleaved from GST]: 3460 nM.
On the same count and under the same terms, next, GLSAQDISQPLQNSFIHTGHGDSDP (domain or fragment) [ACK GBD Δ17, cleaved from GST]: 4760 nM.

By kon is commonly meant a measure of how fast the partners come together. A higher kon goes with fast association.

The values above are taken from article PMC5500802.
